Results published in US20220017620A1.

B1: P1G2 full-length IgG1 antibody (antibody, V domains shown)
VH: QVQLQQSGAEVKKPGSSVKVSCKASGGTFSSYAISWVRQAPGQGLEWMGRIIPILGIANYAQKFQGRVTITADKSTSTAYMELSSLRSEDTAVYYCAVNYYDSSGYYSDYWGQGTLVTVSS
VL: SYELTQPPSASGSPGQSVTISCTGTSSDVGGYNYVSWYQQHPGKAPRLMIYGVSQRPSGVPDRFSGSKSGNTASLTVSGLQAEDEADYYCSSYANNNYVFGTGTKVTVL
B2: P1D1 full-length IgG1 antibody (antibody, V domains shown)
VH: QVQLVQSGAEVKKPGESLKISCKGSGYSFTSYWIGWVRQMPGKGLEWMGIIYPGDSDTRYSPSFQGQVTISADKSISTAYLQWSSLKASDTAMYYCARRSVAGLDYWGQGTLVTVSS
VL: KTVVTQPPSASGTPGQRVTISCSGSSSNIGSKYVYWYQQLPGTAPRLLIYRNNQRPSGVPDRFSGSKSGTSASLAISGLRSEDESDYYCASWDDRLKGYAFGTGTKVTVL

Target: B7-H3 on Hs-700T pancreatic cancer cells (UniProt Q5ZPR3)
Assay: cell-based ELISA on fixed Hs-700T cells

Row | EC50 (read off the curve) | Binder
1 | 0.03 µg/mL | B1
2 | 0.03 µg/mL | B2
